Laboratory results taken from patent publication US20250361525, “AAV VECTORS FOR GENE EDITING” (Scribe Therapeutics Inc., published 2025).
Numbering of substitutions follows the chain as printed.

T1: CasX variant 515 (synthetic construct)
T1 chain: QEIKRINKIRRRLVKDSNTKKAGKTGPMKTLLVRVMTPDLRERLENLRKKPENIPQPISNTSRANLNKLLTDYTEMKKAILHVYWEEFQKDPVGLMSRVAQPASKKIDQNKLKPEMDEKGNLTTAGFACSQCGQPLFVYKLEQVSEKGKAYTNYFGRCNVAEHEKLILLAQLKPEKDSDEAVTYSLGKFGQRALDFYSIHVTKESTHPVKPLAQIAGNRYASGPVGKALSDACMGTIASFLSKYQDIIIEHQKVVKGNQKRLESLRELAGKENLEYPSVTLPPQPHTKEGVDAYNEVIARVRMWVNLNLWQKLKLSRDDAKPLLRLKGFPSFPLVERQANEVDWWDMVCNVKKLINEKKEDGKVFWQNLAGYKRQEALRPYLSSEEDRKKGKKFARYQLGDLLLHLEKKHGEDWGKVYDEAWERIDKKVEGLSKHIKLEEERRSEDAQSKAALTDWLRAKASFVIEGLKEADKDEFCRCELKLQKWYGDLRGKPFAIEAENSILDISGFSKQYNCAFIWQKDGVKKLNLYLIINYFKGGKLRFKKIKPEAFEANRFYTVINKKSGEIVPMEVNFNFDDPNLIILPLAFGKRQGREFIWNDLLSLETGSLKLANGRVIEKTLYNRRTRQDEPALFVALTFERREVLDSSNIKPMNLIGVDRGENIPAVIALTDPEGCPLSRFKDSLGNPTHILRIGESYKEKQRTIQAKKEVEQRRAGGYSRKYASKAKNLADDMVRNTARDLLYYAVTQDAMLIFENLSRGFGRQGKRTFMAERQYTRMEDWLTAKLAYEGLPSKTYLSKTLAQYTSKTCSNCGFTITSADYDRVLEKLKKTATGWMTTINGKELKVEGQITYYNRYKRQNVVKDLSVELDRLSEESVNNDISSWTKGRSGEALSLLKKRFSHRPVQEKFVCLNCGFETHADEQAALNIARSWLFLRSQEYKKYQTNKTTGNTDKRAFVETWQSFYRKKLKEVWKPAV

B1: sgRNA 2.7.9 ; 7.9 target (ssRNA ; dsDNA)
RNA: UACUGGCGCUUUUAUCUCAUUACUUUGAGAGCCAUCACCAGCGACUAUGUCGUAUGGGUAAAGCGCUUAUUUAUCGGAGAGAAAUCCGAUAAAUAAGAAGCAUCAAAGGUGUAGUACAAGAGAUAGAA
DNA 1: TTTCAGTGGGGGTGAATTCAGTGTAGTACAAGAGATAGAAAGACCAGTCCTTGCTGAAAG
DNA 2: CTTTCAGCAAGGACTGGTCTTTCTATCTCTTGTACTACACTGAATTCACCCCCACTGAAA
modifications: 5' amino modifier C6
B2: sgRNA 174.7.9 ; 7.9 target (ssRNA ; dsDNA)
RNA: ACUGGCGCUUUUAUCUGAUUACUUUGAGAGCCAUCACCAGCGACUAUGUCGUAGUGGGUAAAGCUCCCUCUUCGGAGGGAGCAUCAAAGGUGUAGUACAAGAGAUAGAA
DNA 1: B1 DNA 1
DNA 2: B1 DNA 2
modifications: 5' amino modifier C6
B3: sgRNA 235.7.9 ; 7.9 target (ssRNA ; dsDNA)
RNA: ACUGGCGCUUCUAUCUGAUUACUCUGAGCGCCAUCACCAGCGACUAUGUCGUAGUGGGUAAAGCCGCUUACGGACUUCGGUCCGUAAGAGGCAUCAGAGGUGUAGUACAAGAGAUAGAA
DNA 1: B1 DNA 1
DNA 2: B1 DNA 2
modifications: 5' amino modifier C6
B4: sgRNA 316.7.9 ; 7.9 target (ssRNA ; dsDNA)
RNA: B2 RNA with U11C, U24C, A29C, A87G
DNA 1: B1 DNA 1
DNA 2: B1 DNA 2
modifications: 5' amino modifier C6
B5: sgRNA 2.7.37 ; 7.37 target (ssRNA ; dsDNA)
RNA: UACUGGCGCUUUUAUCUCAUUACUUUGAGAGCCAUCACCAGCGACUAUGUCGUAUGGGUAAAGCGCUUAUUUAUCGGAGAGAAAUCCGAUAAAUAAGAAGCAUCAAAGGGCCGAGAUGUCUCGCUCCG
DNA 1: TGAAGCTGACAGCATTCGGGCCGAGATGTCTCGCTCCGTGGCCTTAGCTGTGCTCGCGCT
DNA 2: AGCGCGAGCACAGCTAAGGCCACGGAGCGAGACATCTCGGCCCGAATGCTGTCAGCTTCA
modifications: 5' amino modifier C6
B6: sgRNA 174.7.37 ; 7.37 target (ssRNA ; dsDNA)
RNA: ACUGGCGCUUUUAUCUGAUUACUUUGAGAGCCAUCACCAGCGACUAUGUCGUAGUGGGUAAAGCUCCCUCUUCGGAGGGAGCAUCAAAGGGCCGAGAUGUCUCGCUCCG
DNA 1: B5 DNA 1
DNA 2: B5 DNA 2
modifications: 5' amino modifier C6
B7: sgRNA 235.7.37 ; 7.37 target (ssRNA ; dsDNA)
RNA: ACUGGCGCUUCUAUCUGAUUACUCUGAGCGCCAUCACCAGCGACUAUGUCGUAGUGGGUAAAGCCGCUUACGGACUUCGGUCCGUAAGAGGCAUCAGAGGGCCGAGAUGUCUCGCUCCG
DNA 1: B5 DNA 1
DNA 2: B5 DNA 2
modifications: 5' amino modifier C6
B8: sgRNA 316.7.37 ; 7.37 target (ssRNA ; dsDNA)
RNA: B6 RNA with U11C, U24C, A29C, A87G
DNA 1: B5 DNA 1
DNA 2: B5 DNA 2
modifications: 5' amino modifier C6

Target: T1, CasX variant 515
Assay: cleavage_in_vitro

Row | Binder | activity [s⁻¹]
1 | B1 | 0.135
2 | B2 | 0.172
3 | B3 | 0.17
4 | B4 | 0.141
5 | B5 | 0.0204
6 | B6 | 0.0534
7 | B7 | 0.0647
8 | B8 | 0.0851
